Reference: the RNAGym collection of RNA variant scans (doi:10.1073/pnas.2313332121)
Fewer inactive variants are shown than the library holds.

B1: TPR 5TU (parent)
chain: GGAUCUUCUCGAUCUAACAAAAAAGACAAAUCUGCCACAAAGCUUGAGAGCAUCUUCGGAUGCAGAGGCGGCAGCCUUCGGUGGCGCGAUAGCGCCAACGUUCUCAACUAUGACACGCAAAACGCGUGCUCCGUUGAAUGGAGUUUAUCAUG

Variants of: B1
Experiment: polymerase ribozyme fitness, log enrichment relative to wild type (log ratio); higher = more active; in vitro selection for triplet polymerase activity
Outline: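 Each subunit of a heterodimeric triplet polymerase ribozyme was represented by a PCR-built, transcribed mutant library that underwent triplicate single-round in vitro selection with frozen incubation at −7 °C. Extended constructs were recovered by gel excision, streptavidin-bead capture and RT-PCR, and Illumina sequencing of input and output libraries kept genotypes with ≥10 input reads and ≥1 read per output. Fitness is the logarithm of genotype enrichment relative to wild-type enrichment, from inverse-variance-weighted replicate averages, with a logarithm base of 2.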

| Variant | polymerase ribozyme fitness (log ratio) |
| --- | --- |
| A20G G59C G94C | -0.672 |
| A21U A26G G86U C118U | ≤ -4.2 |
| A21G A41C U56G G65A G141U | -3.42 |
| A21C A29U C43A U55A G83A A107C | ≤ -4.2 |
| A21U C96G G143U | -3.69 |
| A21C G59A A113G | -1.92 |
| A21U A23G A26G G84U G86U G136U U148G | ≤ -4.2 |
| A20C C85U | -1.04 |
| A20C C103G | -1.28 |
| A20U A47U G70C G80C C85G C93A C108U A122G U144G | ≤ -4.2 |
| A21U C57A A89U | -0.571 |
| A21C C72G G124C | ≤ -4.2 |
| A20U A28U A64C C79U C93A C114U | ≤ -4.2 |
| A21U A30G | -3.62 |
| A20G A41U C51A U56A C76U G86U G88U A91U C123A U144A C149A | ≤ -4.2 |
| A21U A64C U145G | ≤ -4.2 |
| A21U A26C C69A G84U | -3.67 |
| A21C G50C C63U C93G | -1.78 |
| A21C A91G C96U | -3.34 |
| A21U A28C U31G A47G C85U C116G C129A G133A | ≤ -4.2 |
| A22C C27U C54U C85G A91U G112A A119U A147C A150C | ≤ -4.2 |
| A21U G58C A73G C85G | -1.7 |
| A21U U44A C93G G94C | ≤ -4.2 |
| A21U A60G | 0.987 |

| Variant | polymerase ribozyme fitness (log ratio) |
| --- | --- |
| A21G A91G A115U C116A | -3.91 |
| A20G C54G U82A A98U U144A | -4.1 |
| A21C C43A | ≤ -4.2 |
| A20G G83A C129G | -3.83 |
| A21G A29G G83C A98U | ≤ -4.2 |
| A20U C87U | -2.07 |
| A21U A23U A24C C54U G81A C85U | ≤ -4.2 |
| A20U A137C | -3.99 |
| A21C C51U A106G | -0.144 |
| A21U A23U A24C C54U G81A C85U A147C | ≤ -4.2 |
| A22C C57U A60U C69G | -1.7 |
| A21C A26C C85U A89C G136A G141A | -4.04 |
| A20G A22C | -0.665 |
| A21C C93A | -2.02 |
| A21U C32A G58C | ≤ -4.2 |
| A20C U56A | -0.524 |
| A21U A52G A66C G128A | ≤ -4.2 |
| A20U A40C G94A A115U A119C | -3.89 |
| A21G A49G C63G C96U A98U C125G | -0.663 |
| A20U A40C G80U G83A C99U G133U A142G U145C | ≤ -4.2 |
| A21U C75A A122U | -3.97 |
| A21C A24U G46U C57U C93U | -1.65 |
| A21U G62A | 0.138 |
| A20U G48U U61G C85G | ≤ -4.2 |

| Variant | polymerase ribozyme fitness (log ratio) |
| --- | --- |
| A21U U61A G88A | ≤ -4.2 |
| A21C C93U A97U C116U C123U | -0.404 |
| A20U A150G | -1.81 |
| A21U A49G A98G | -0.555 |
| A21G G46C U82G G88U C95G A98C | ≤ -4.2 |
| A20G G124U | -0.645 |
| A21G G42A G50C C93G G136U | ≤ -4.2 |
| A21C A26U G140C U146A | ≤ -4.2 |
| A22C G42U A73U G81C A91U C96U A107G G143C | ≤ -4.2 |
| A22C A28C A40G C43U U56G C85U | ≤ -4.2 |
| A22C C27G A37C A73G U146A G152U | ≤ -4.2 |
| A21G C27G C114U U135G U146A U148G | ≤ -4.2 |
| A21G G84C A113U | -4.09 |
| A20U A29U G71U G84A | ≤ -4.2 |
| A21U A142U | -0.552 |
| A21G C85U | -0.132 |
| A21G C85A | -1.12 |
| A20U G58C C85U A98U C129U U134C | -1.85 |
| A21U C43U C99G A120G G126U | ≤ -4.2 |
| A21U A60C C87A A98G G100C | ≤ -4.2 |
| A21U C51U A106U | -2.08 |
| A21C G81C G88A A107G | ≤ -4.2 |
| A20C C79A U82C A107C | ≤ -4.2 |
| A21U | 0.554 |

| Variant | polymerase ribozyme fitness (log ratio) |
| --- | --- |
| A21C | 0.199 |
| A21G | 0.531 |
| A20G C27G A29U A97G A120G U146G | -4.06 |
| A22C C35G U44A A60G C76A C95U G128A A150C U151G | ≤ -4.2 |
| A20G A21U A23U C87A A91C C95A C118G G133U U135A | ≤ -4.2 |
| A21C U56G C85A C87U G92A | -3.51 |
| A21U A47C A52C A60G C85G C87A A121C | ≤ -4.2 |
| A20C C87A | ≤ -4.2 |
| A20C C87U | -1.36 |
| A21C C96U A122C | -0.0635 |
| A20U U45A G124A | -3.98 |
| A20G A21U G59C C69A A98G U109A | ≤ -4.2 |
| A21G G50U G92U A147C | -0.875 |
| A21C U56A | -0.39 |
| A21U A24C A26U U44G A89U A91G G128U G140C U145A | ≤ -4.2 |
| A22C A24C U61G G88U | ≤ -4.2 |
| A21G C57A G81C A97G U101C U135C | -1.99 |
| A20G U104C G117U | -0.102 |
| A20U A21U A37C C96A A121G | -1.8 |
| A21C A26C C27U U44G A52G G58C U90A G92A G100U | ≤ -4.2 |
| A20U A41U C63A A106G U145A | -2.83 |
| A21C G50A A122U | -1.39 |
| A22C C51A C93G A98C C116U U135C | ≤ -4.2 |
| A20G G46A U146A | -1.3 |

| Variant | polymerase ribozyme fitness (log ratio) |
| --- | --- |
| A20U G59A G88A C95G U151A | ≤ -4.2 |
| A20G A26U U31G A40G C125G U151C G152A | ≤ -4.2 |
| A21G U144A | 0.357 |
| A21U C63U G84A | -0.545 |
| A20U A26G C27A C36U C93U A147U | ≤ -4.2 |
| A20G C93U | -2.59 |
| A21C A49C A52C U53G G84U C95U G141A | ≤ -4.2 |
| A22C C76A G128U C129U | ≤ -4.2 |
| A20C U55A C132A A137G G143A U146G | ≤ -4.2 |
| A22C A52G G71A C79G C87G C99G C114G U127G C129A A142C | ≤ -4.2 |
| A21U A24U A52G G71U U90C C123U G126U U144A A147C U151A | ≤ -4.2 |
| A21C C85G C103U G136A | -1.18 |
| A21U G50C C54U C63U G94A | -0.0103 |
| A20G C38G C69U G86U A91U C99G A137G | ≤ -4.2 |
| A21U A41G | 1.06 |
| A22C A26U U31C A37C U56C A73C A91C | ≤ -4.2 |
| A21U C96U C108U C132A | ≤ -4.2 |
| A21U G50C G84U | -4.11 |
| A20C U53A G84A | -1.69 |
| A21U C36A G50U U55A C57G G62A G68U C85G C103A G128A | ≤ -4.2 |
| A21G A23G G128C | ≤ -4.2 |
| A21U A29U A66U C76A C93G | ≤ -4.2 |
| A21C C32G C43U C57A G71U C85A G88C A91C A147U | ≤ -4.2 |
| A22C C27G A66U U145C | ≤ -4.2 |

| Variant | polymerase ribozyme fitness (log ratio) |
| --- | --- |
| A20U A26C G84U C103G A106C C108G | ≤ -4.2 |
| A20G C85A | -2.13 |
| A20G C85G | -2.92 |
| A21C C32G A37U A49G C57U C75G G84A A107C A147U | ≤ -4.2 |
| A21U A39U C43G G50C G92A G141U | ≤ -4.2 |
| A20U G59A C93A | -4.07 |
| A20U A49U C93G C103U | ≤ -4.2 |
| A20C C87G G94C C99A A107U C108G | ≤ -4.2 |
| A21U G84U | -1.29 |
| A22C G46A G59C A91C C99G U101G C116G A138C | ≤ -4.2 |
| A21U C35U C129U | -0.6 |
| A21U C38A G50C U55G C69A C76A G80A U90G | ≤ -4.2 |
| A22C A52U U82C G86U A97G | -3.83 |
| A21U C27G C93U A138C A147C | ≤ -4.2 |
| A20U C96G | -0.585 |
| A22C A52G A106C C118U A142G | -3.06 |
| A20G A41G C54U U56A C93G A120G U139G | -2.99 |
| A21C U53G C87A C95A C149G | ≤ -4.2 |
| A20G C51U G58A C85U A106U | -2.76 |
| A20U A113C G133C | ≤ -4.2 |
| A20U G67C | ≤ -4.2 |
| A21C G25C A52C A89U C118A A119C | -3.52 |
| A20U U55A | -2.07 |
| A20G G136A | 0.27 |

| Variant | polymerase ribozyme fitness (log ratio) |
| --- | --- |
| A21C C36A C95G | -3.86 |
| A20U A30G A41G U45A U53G C96G | ≤ -4.2 |
| A21U G84A A89G | -1.44 |
| A21U A30U C38G C85G G112A G124A | ≤ -4.2 |
| A21U C85A A97U | -2.01 |
| A21G G25C G34A A49G C72U G92C G112U | ≤ -4.2 |
| A20U A22U C57A C96G C125U | -3.05 |
| A21C G50C G74A C87G U109G | ≤ -4.2 |
| A20U C32A C99A A115G A120U | -4.05 |
| A20U A113U | -3.74 |
| A21U A23U C54U G58A G92U | ≤ -4.2 |
| A22C A29U A41G G50C U77A C85U C93G G141C | ≤ -4.2 |
| A22C A40U C54U G94A | -0.982 |
| A21U C75G G86A U101C | -4.03 |
| A20C U31C A41C U55A C79A C99A C125G | ≤ -4.2 |
| A20U G81A A89G C93U C129U | -3.56 |
| A21U U55A | -0.879 |
| A21C C38U G46C U53G G88U A122U G126A U135C C149G | ≤ -4.2 |
| A21U A29C G92A C99U G117U U130G | -3.76 |
| A21U G83C C95U | -1.58 |
| A20C U61G | -1.36 |
| A21U U56A G140A G141A | -4.17 |
| A22C C32U C85G C95A G100A G112C | ≤ -4.2 |
